Consider seven molecules from patent US20240400686A1 (CITY OF HOPE, published 2024).

Changes are numbered by the printed parent chain. In names and notes the source's numbering stands. Like-named read-outs stand apart in the source and are kept apart here. Where no end group is shown, it is not given here. [ ]: non-standard residue; d: D form. pGlu = O=C1CC[C@@H](C(=O)O)N1

Experiment [1] concerns the target T1, recombinant human CD3epsilon/CD3gamma extracellular domain fused with human IgA1.Fc (human).
T1 construct: also called human CD3e/CD3g proteins; human CD3 proteins
Put plainly: SPR, Biacore T200: human CD3-IgA immobilised on a CM5 chip, antibody as analyte. Here is the method: Binding affinities for the different antibodies of interest were measured by surface plasmon resonance (SPR), using a Biacore T200 (GE Healthcare). Human CD3-IgA was immobilized to 200 RU on a CM5 (GE Life Sciences) chip using NHS chemistry. Analytes (CD3 antibodies) were diluted 2× in concentrations (from 12.5 nM to 0.125 nM) and flown over chip at a flow rate of 30 µl/min with HBS-EP+ buffer. Data were analyzed using Biacore T200 Evaluation software v3.0.
(SPR reads the build-up and loss of mass on a sensor chip optically.)

For experiment [2], the target named is T2, CD3 epsilon N-terminal peptide (SEQ ID NO:13) (human and cynomolgus monkey (first …)).
T2 construct: also called CD3 peptide; CD3 epsilon peptide
T2 peptide: [pGlu]DGNEEMGGITQTPYK
Put plainly: SPR on a CD3 peptide, concentration series 3-300 nM (sensorgrams in FIG. 25B).

Experiment [3] has as its target Cyno CD3εδ (cynomolgus monkey). Put plainly: SPR, sensorgrams at 3-100 nM; set-up not given.
Experiment [4] has as its target T2, CD3 epsilon N-terminal peptide (SEQ ID …). Put plainly: SPR on a CD3 peptide, concentration series 3-300 nM.
Experiment [5] shares this target. The experiment is described as above.
The target is the same in experiment [6]. The description is as above.
For experiment [7] the target is unchanged. Briefly: SPR on a CD3 peptide, concentration series 3-300 nM (sensorgrams in FIG. 25A).

For orientation: koff means the rate constant with which the complex falls apart. As a reminder, the kon is the rate constant with which the complex forms. One may read the Kd as a measure of binding affinity in units of concentration.

Cyno CD3εδ (cynomolgus monkey), sequence (Q95LI5 22-117, stated change not applied, chain 1 of 2): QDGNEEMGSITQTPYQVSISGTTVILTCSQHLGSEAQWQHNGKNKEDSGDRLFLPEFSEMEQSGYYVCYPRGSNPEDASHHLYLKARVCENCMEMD
Cyno CD3εδ (cynomolgus monkey), sequence (Q95LI8 22-105, stated change not applied, chain 2 of 2, further chain): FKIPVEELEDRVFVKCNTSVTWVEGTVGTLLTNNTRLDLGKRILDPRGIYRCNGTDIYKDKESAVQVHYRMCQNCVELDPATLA

B1: antibody 3F11 (antibody, V domains shown)
VH: QVQLQQSGPDLVRPGASVKMSCKASGYTFTNYYVHWLNQRPGQGLEWIGWIYPGDGSTKFNEKFKGKTTLTADKSSSTAYILLSSLTSADSAIYFCTRDAGYYFDVWGAGTTVTVSS
VL: DIVMSQSPSSLAVSAGEKVTISCKSSQSLLNNRTRKNYLAWYQQKPGQSPKLLIYWASTRESGVPDRFTGSGSGTDFTLTISSVQAEDLAVYYCKQSYILRTFGGGTKLEIK
notes: Tested as mouse hybridoma antibody (culture supernatant or mAb); also called Clone 3F11
B1: in experiment [1], the koff came out at 0.0034 s⁻¹ and the on-rate constant (kon) is 1.12e+07 M⁻¹ s⁻¹.

B2: mouse antibody 26H8 (antibody, V domains shown)
VH: QVQLQQSGPELVKPGASVRMSCKASGYTFTNYYIHWVRQRPGQGLEWIGWIYCGDGSTKFNEQFKDRTTLTADHSSSTAYMLLSSLTSEDSAIYFCARDWAGSYFFDFWGQGTTLTVSS
VL: B1 VL with I21M, N32S
notes: Tested as mouse hybridoma antibody (culture supernatant or mAb); also called Clone 26H8; 261H8
As to B2, in experiment [1], the dissociation rate constant (koff) worked out at 0.00062 s⁻¹ and the on-rate (kon) stood at 2.3e+06 M⁻¹ s⁻¹.

B3: humanized 26H8 Fab (Fab, V domains shown)
VH: QVQLQESGPGLVKPSETLSLTCTASGYTFTNYYIHWVRQSPGKGLEWIGWIYCGDGSTKFNEQFKDRTTLSADHSKTQASLKLSSVTAADTAIYFCARDWAGSYFFDFWGQGTMVTVSS
VL: DIQMTQSPSSLSASVGDRVTITCKSSQSLLNSRTRKNYLAWYQQKPGKAPKLLIYWASTRESGVPSRFSGSGSGTDFTFTISSLQPEDIATYYCKQSYILRTFGGGTKVEIKR
notes: a Fab; also called h26H8 Fab; h26H8
On to B3, for which, in experiment [2], the dissociation constant Kd is 51.6 nM, the koff was 0.0322 s⁻¹ and the kon was determined as 623000 M⁻¹ s⁻¹. Also, in experiment [3], the Kd was determined as 36 nM, the koff came to 0.031 s⁻¹ and the kon worked out at 870000 M⁻¹ s⁻¹.

B4: H26H8 Fab H35F (Fab, V domains shown)
VH: B3 VH with H35F
VL: B3 VL
notes: Fab' fragment; phenylalanine at position 35 of the heavy chain variable domain; also called h26H8 H35F; h26H8 H35F Fab'
Take B4: in experiment [4], the binding result was “no binding (tested: 300 nM)”.

B5: H26H8 Fab Y33S (Fab, V domains shown)
VH: B3 VH with Y33S
VL: B3 VL
notes: Fab' fragment; serine at position 33 of the heavy chain variable domain; also called h26H8 Y33S; h26H8 Y33S Fab'
B5: the binding result in experiment [5] was “no binding (tested: 300 nM)”.

B6: H26H8 Fab H35Y (Fab, V domains shown)
VH: B3 VH with H35Y
VL: B3 VL
notes: Fab' fragment; tyrosine at position 35 of the heavy chain variable domain; also called h26H8 H35Y; h26H8 H35Y Fab'
As to B6, in experiment [6], the binding result is listed as “no binding (tested: 300 nM)”.

B7: H26H8 Fab C53S (Fab, V domains shown)
VH: B3 VH with C53S
VL: B3 VL
notes: Fab' fragment; serine at position 53 of the heavy chain variable domain; also called h26H8 C53S
With B7, in experiment [7], the Kd was 116 nM, the koff stood at 0.0658 s⁻¹ and the association rate constant (kon) amounted to 569000 M⁻¹ s⁻¹.
